Data: patent US20060247420A1, “Immune cell recptor ligand and immune cell receptor” (priority 2002, published 2006)

Tests used:
[1] = system: CD8^+ lymphocytes; experiment: Anti-CD95 (EOS9.1) induced apoptosis of stimulated CD8+ lymphocytes, annexin-V; type: cell-based, human; settings: treated 4 days; anti-Fas Ab, after 18 h
Experimental: (§1) Apoptosis assay. The percentage of apoptotic cells was determined after 17 h incubation with 50 μM cisplatin or 18 hs exposure to 0.1 μg/ml anti-CD95 mAb (EOS9.1; Pharmingen) by using the TACS annexin-V apoptosis detection kit, according to the manufacturer's instructions (R & D Systems). Fas expression was determined by flow cytometry by using EOS9.1 as a primary Ab and a PE-labeled anti-mouse IgM (R6-60.2; Pharmingen) as a second Ab.
(§2) Letal engagement protects CD8^+ T-cells from FasL-induced apoptosis. […] Because ovarian carcinomas express FasL and other lymphocyte-depleting death ligands (Rabinowich et al, J. Clin. Invest. 101:2579-2588 (1998)), the prevalence of FasL expression and its impact on TILs was determined in 42 stage III ovarian carcinoma specimens. Strong FasL immunoreactivity was detected in tumor cells in areas of selected specimens (FIG. 10A), as well as in a proportion of stromal leukocytes. To test whether Letal promotes the generation of activated T-cell subpopulations that are able to resist the pro-apoptotic tumor microenvironment, peripheral CD8^+ T-cells were stimulated for 4 days with CD3/Letal, CD3/CD28, or anti-CD3 alone, and expression of Fas was measured by flow cytometry. […]

[2] = system: NKG2D on peripheral CD8^+ T-cells; experiment: NKG2D expression on CD8+ lymphocytes after co-culture with K32 aAPCs, flow cytometry; type: cell-based, human; settings: peripheral CD8^+ T-cells co-cultured 4 days with K32 aAPCs; versus mock-transduced K32
Text: CD8^+ lymphocyte stimulation and cytokine release. To analyze the effects of Letal on the T-cell proliferation and production of cytokines, a previously described artificial antigen-presenting cell (aAPC) model was used (Maus et al, Nat. Biotechnol. 20(2):143-148 (2002)). Briefly, the system is based on the stable expression of the human low-affinity Fcγ receptor, CD32, on K562 cells (K32 cell line). K32 cell-based aAPCs were additionally transduced with Letal or with the empty vector as described above, irradiated with 100Gy, and washed twice with RPMI medium. Letal^+-K32 cells or mock transductants were loaded, when indicated, with anti-CD3 (OKT3), or anti-CD3 plus anti-CD28 (mAbs; 9.3) monoclonal antibodies at 0.5 μg/ml for 10 min at room temperature. Loaded &APCs were mixed with CD8^+ T-cells at a 1:2 ratio and the T-cell concentration was maintained at 0.5×10^6 cells/ml throughout the culture. Cultures were pulsed with 1 μCi of [^3H] thymidine from day 2 to day 5 and incorporated radioactivity was determined using a 1450 Microbeta scintillation counter (Wallac, Turku, Finland). The amounts of secreted IL-2 and IFNγ were determined by commercial ELISA, following the manufacturer's instructions (R & D Systems). Flow cytometry was performed with a FACScalibur (BD Biosciences, San Jose, Calif.). […]

[3] = system: Fas on peripheral CD8^+ T-cells; experiment: Fas expression on stimulated CD8+ T-cells, flow cytometry; type: cell-based, human; settings: 4 days stimulation
Experimental: as §1, §2

[4] = target: T1, NKG2D immunoreceptor (recombinant human NKG2D/Fc chimera) (Homo sapiens, UniProt P26718); experiment: Binding of recombinant soluble NKG2D-Fc to Letal-transduced cells, flow cytometry; settings: Letal^+ K562 and Letal^+ SKOV3 cells; 3 μg/ml NKG2D/Fc; anti-human IgG mAb
T1 construct: containing the ectodomain of the immunoreceptor (Phe78 through Val216); purchased R & D Systems
T1 sequence (P26718 78-216): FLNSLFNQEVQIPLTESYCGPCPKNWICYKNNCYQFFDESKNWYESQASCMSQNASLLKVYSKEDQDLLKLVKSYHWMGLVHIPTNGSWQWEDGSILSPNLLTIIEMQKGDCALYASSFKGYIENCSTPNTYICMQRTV
Text: Constructs and generation of antibodies. SKOV3 and K562 cells were transduced using retroviral vector MIGR1, generously provided by Warren Pear (University of Pennsylvania). Letal or mock transductants expressing equivalent levels of the green fluorescent protein were sorted and cultured by standard procedures. […] Anti-human IgG mAb (G18-145; Pharmingen, San Diego, Calif.) was used to detect the chimerical molecule.
Letal is a ligand of NKG2D expressed in a variety of normal tissues. […] Expression of the Letal protein was confirmed on transduced cells, but not on mocked transductants, by flow cytometry using serum of Letal-immunized mice (FIG. 1D). […] To evaluate the binding of NKG2D to transduced Letal, a recombinant soluble NKG2D-Fc fusion protein was used, containing the ectodomain of the immunoreceptor (Phe78 through Val216). […] Treatment with phospholipase C decreased binding of sNKG2D to Letal^+ K562 cells, although binding was higher than to control cells.

[5] = system: SKOV3 chemoresistant ovarian carcinoma cells; experiment: NK cell cytotoxicity against Letal+ or control SKOV3 cells, 51Cr release; type: cell-based, human; settings: IL-15 activated NK cells; Letal^+ versus control SKOV3
Experimental: GPI-specific phospholipase-C treatment, ^51Cr release and apoptosis assay. Letal^+ and Letal^− A2780 cells were treated with 2 U/ml GPI-specific phospholipase-C (Sigma) at 37° C. for 1 hr. A standard ^51Cr-release assay was performed using 8,000 ^51Cr-labeled targets/well.
For analysis of the NK-dependent anti-tumor immune response, the cytotoxicity of NK cells against Letal^+ or control SKOV3 chemoresistant ovarian carcinoma cells was compared.

staining by NKG2D-Fc compared with mock-transductants [4]: markedly stronger staining
B1: Letal: MHC-I related transmembrane ligand for the NKG2D receptor, polypeptide of SEQ ID NO:8; tested as expressed on transduced cells (protein)
chain: GGHSLCFNFTIKSLSRPGQPWCEAQVFLNKNLFLQYNSDNNMVKPLGLLGKKVYATSTWGELTQTLGEVGRDLRMLLCDIKPQIKTSDPSTLQVEMFCQREAERCTGASWQFATNGEKSLLFDAMNMTWTVINHEASKIKETWKKDRGLEKYFRKLSKGDCDHWLREFLGHWEAMPEPTVSPVNASDIHWSSSSLPDRWIILGAFILLVLMGIVLICVWWQNGEWQAGLWPLRTS
lymphocytes that resist apoptosis [1]: More than 25% | increase of NKG2D expression [2]: 2 fold | T-cells with dramatically reduced Fas expression compared to controls [3]: 60% | killing of SKOV3 cells by NK effectors [5]: increased killing
